Source: the RNAGym collection of RNA variant scans (doi:10.7554/elife.80360)

B1: HDV Ribozyme (parent)
chain: GGCCGGCAUGGUCCCAGCCUCCUCGCUGGCGCCGGCUGGGCAACAUUCCGAGGGGACCGUCCCCUCGGUAAUGGCGAAUGGGACCCA

Variants of: B1
Experiment: self-cleavage, relative activity (ratio to wild type); higher = more cleavage; co-transcriptional

| Variant | self-cleavage |
| --- | --- |
| GGCCGGCAUGUUCCCAGCCUCCUCGCUGGCGCCGGCUGGGCAACCUUCCGAGGGGACCGUCCCCUCGGUAAUGGCGAAUGGGACCCA | 0.0841 |
| GGCCGGCAUGGUCCCAGCCGCCUCGCUGGCGCCGGCUGGGCAACAUUGCGAGGGGACCGUCCCCUCGGUAAUGGCGAAUGGGACCCA | 0.222 |
| GGCCGGCAUGGUCCCAGCUUCCUCGCUGGCGCCGGCUGGGCAACAUUCCGAGGGGACCGUCCCCUCGUUAAUGGCGAAUGGGACCCA | 0.168 |
| GGCCGGCAUGGUCCCAGCCCCCUCGCUGGCGCCGGCUGGGCAACAUUCCGAGGGGACCGUCCCCUCGGUCAUGGCGAAUGGGACCCA | 0.246 |
| GGCCGGCAUGGUCCCAGCCUCCUCGCUGGUGCCGGCUGGGUAACAUUCCGAGGGGACCGUCCCCUCGGUAAUGGCGAAUGGGACCCA | 0.447 |
| GGCCGGCAUGUUCCCAGCCUCCUCGCUGGCGCCGGCUGAGCAACAUUCCGAGGGGACCGUCCCCUCGGUAAUGGCGAAUGGGACCCA | 0.128 |
| UGCCGGCAUGGUCCCAGCCUCCUCGCUGGCGCCGGCUGGGCAACAUUCCGAGGGGACCGUCCUCUCGGUAAUGGCGAAUGGGACCCA | 0.535 |
| GGCCGGCAUGGUCCCAGCCUCCUCGCUAGCGCCGGCUGGGCAACAUUCCGAGGGGACCGUCCCCUCGGUAAUGGCAAAUGGGACCCA | 0.0563 |
| GGCCGGCAUGGUCCCAGCCUCCUCGCUGGCGCCGGCUGGGCAACAUUCCGAGGGGACCGUCCCCUCGGUAAUGGCGAAUGUGACCUA | 0.767 |
| GGCCGGCAUGGUCCCAGCCUCCUCGCUGGCGCCGGCUGGGCAAUAUUCCGAGGGGACCGUCCCCUCGGUAAUGACGAAUGGGACCCA | 0.427 |
| GGCCGGCAUGGUCCCAGCCUCCUCGCUGGCGCCGGCUGGGCAACAUUCCGAGGGGACCGCCCCCUCGGUAAUGGCGAAUGGGAGCCA | 0.856 |
| GGCCGGCAUGGUCCCGGCCUCCUCGCUGGCGCCGGCUGGGCAACAUUCCGAGGGGACCGUCCCCUGGGUAAUGGCGAAUGGGACCCA | 0.743 |
| GGCCGGCAUGGUCCCAGCCUCCUCGCUGGCGCCGGCUGGGCAACAUUCCGAGGGGACCGUCCCCUCGGUACUGGAGAAUGGGACCCA | 0.0852 |
| GGCCGGCAUGGUCCCAGCCUCCUCGCUGGCGCCGGCUGGGCAACAUUACGAAGGGACCGUCCCCUCGGUAAUGGCGAAUGGGACCCA | 0.926 |
| GGCCGGCAUGGUCCCAGCCUCCUCGCUGGCGCCGGCUGGGCAACUUUCCGAGGGGACCGUCCCCUCGGUAAUGACGAAUGGGACCCA | 0.513 |
| GGCCGGCAUCGUCCCAGCCUCCUCGCUAGCGCCGGCUGGGCAACAUUCCGAGGGGACCGUCCCCUCGGUAAUGGCGAAUGGGACCCA | 0.0723 |

| Variant | self-cleavage |
| --- | --- |
| GGCCGGCAUGGUCCCAGCCUCCUCGCUGGCGCCGGCUGGGCAACAUUCCGAGGGGUCCGUCCCCUCGGAAAUGGCGAAUGGGACCCA | 1.04 |
| GGCCGCCAUGGUCCCAGCCUCCUCACUGGCGCCGGCUGGGCAACAUUCCGAGGGGACCGUCCCCUCGGUAAUGGCGAAUGGGACCCA | 0.0898 |
| GGCCGGCAUGGUCCCAGCCUCAUCGCUGGCGCCGGCUGGGCAACAUACCGAGGGGACCGUCCCCUCGGUAAUGGCGAAUGGGACCCA | 0.208 |
| GGCCGGCAUGGUCCCAGCCUCCUCGGUGGCGCCGGCUGGGCACCAUUCCGAGGGGACCGUCCCCUCGGUAAUGGCGAAUGGGACCCA | 0.437 |
| GGCCGGCAUGGUCCCAGCCUCCUCGCUGGCGCCCGCUGGGCAACAUUCCGAGGGGACCGUCCCCUCGGUAAUGGCGAAUGGGACCUA | 0.237 |
| GGCCGGCAUGGUCCCAGCCUCCUCGCUGGCGCCGGCAGGGCAACAUUCCGAGGGGACUGUCCCCUCGGUAAUGGCGAAUGGGACCCA | 0.405 |
| GGCCGGCAUGGUCCCAGCCUCCUCGCUGGCGCCGGUUGGGCAACAUUCCGAGGGGACCGUCCCCUCGGUAAUGGCCAAUGGGACCCA | 0.909 |
| GGCCGGCAUGGUCCCAGCCUCCUCGCUGGCGCCGUCUGGGCAACAUUCCGAGGGGACCGUCCCCUCGGUAAUGGUGAAUGGGACCCA | 0.095 |
| GGCCGGCAUGGUCCCAGCCUCCUCGCUGGCGCCGUCUGGGCAACAUUCCGAGGUGACCGUCCCCUCGGUAAUGGCGAAUGGGACCCA | 0.448 |
| GGCCGGCAUGGUCCCAGCCUCCUCGCUCGCGCCGGCUGGGCAACAUUCCGAGGGGACCGUCCCCUCGGUAGUGGCGAAUGGGACCCA | 0.222 |
| GGCCGGCAUGGUCCCAGCCUCCUCGCUGGCGCCGGCUGGGCCACAUUCCGAGGGGACCGUCCGCUCGGUAAUGGCGAAUGGGACCCA | 0.208 |
| GGCCGGCAUGGUCCCAGCCUCCUCGCUGGCGCCGUCUGGGCAACAUUCCGAGGGGACCGUCCCCUCGGUAAUGGCAAAUGGGACCCA | 0.404 |
| GGCCGGCAUGGUCCCAGCUUCCUCGCUGGCGCCGGCUGGGCAACAUUACGAGGGGACCGUCCCCUCGGUAAUGGCGAAUGGGACCCA | 0.117 |
| GCCCGGCAUGGUCCCAGCCUCCUCGCUGGCGCCGGCUGGGCAACAUUCCGAGGGGACCGUCCCCUCGGUAAUGGCAAAUGGGACCCA | 0.13 |
| GGCCGGCAUGGUCCCAGCCUCCUCGCUGGCGCGGGCUGGGCAACAUUCCGAGGGGACCGUCCCCUCGGUAAUGGCGAAUGGGACCCC | 0.0839 |
| GGCCGGCAUGGUCCCAGCCUCCUCGCUGGCGCCGGCUGGGCAACAUUCCGAGGGGACCGUCCCAUCGGUAAUGGCGAAUGGAACCCA | 0.282 |
